Changes are numbered by the printed parent chain.
B1: h1A11.A6 (antibody, V domains shown)
VH: EVQLVESGGGLVQPGGSLRLSCAASGFTFRHFPMAWVRQAPGKGLEWVATISSSDAWPSYRDSVKGRFTISRDNAKNSLYLQMNSLRAEDTAVYYCSRGYYNSPFAYWGQGTLVTVSS
VL: DIQMTQSPSSLSASVGDRVTITCRASEDIYSNLAWYQQKPGKAPKLLIYDTNNLADGVPSRFSGSGSGTDFTLTISSLQPEDFATYYCQQYNNYPPTFGQGTKLEIK
notes: also called h1A11.A6 VH / h1A11VL.1
B2: h1A11.C6 (antibody, V domains shown)
VH: B1 VH with H31N, A56G, S59T, N77S
VL: B1 VL
notes: also called h1A11.C6 VH / h1A11VL.1
B3: h1A11.G3 (antibody, V domains shown)
VH: B1 VH with H31Y, A35S, T50S, S53G, A56G, P58A, S97A
VL: B1 VL with E27Q, D28E, S31R, A43S, Y49F, N52S, N53V, F71S, N92T, N93Y
notes: also called h1A11.G3 VH / h1A11.E12 VL
B4: h1A11.A7 (antibody, V domains shown)
VH: B1 VH with R30S, H31N, A56G, W57T, P58T, S59Y, S97A
VL: B1 VL with E27Q, S31I, Y49F, N52S, N53D, N92D, N93Y
notes: also called h1A11VH.1 / h1A11.A7 VL
B5: h1A11.A2 (antibody, V domains shown)
VH: B1 VH with R30S, H31N, A56G, W57T, P58T, S59Y, S97A
VL: B1 VL with E27Q, S31I, A43S, Y49F, N53D, N92D, N93Y, Y94V
notes: also called h1A11VH.1 / h1A11.A2 VL
B6: h1A11.A12 (antibody, V domains shown)
VH: B1 VH with R30S, H31N, A56G, W57T, P58T, S59Y, S97A
VL: B1 VL with E27Q, S31Y, A43S, Y49F, N52S, N53S, Y87F, N92D, N93W
notes: also called h1A11VH.1 / h1A11.A12 VL
B7: h1A11.B4 (antibody, V domains shown)
VH: B1 VH with R30S, H31N, A56G, W57T, P58T, S59Y, S97A
VL: B1 VL with E27Q, S31Y, Y49F, N53I, Y87F, N92D, N93Y, Y94V
notes: also called h1A11VH.1 / h1A11.B4 VL
B8: h1A11.F5 (antibody, V domains shown)
VH: B1 VH with S97A
VL: B1 VL with E27Q, D28E, S31R, A43S, Y49F, N52S, N53V, F71S, N92T, N93Y
notes: also called h1A11.F5 VH / h1A11.E12 VL
B9: h1A11.A8 (antibody, V domains shown)
VH: B1 VH with R30G, H31N, A35S, T50S, A56S, P58A, S59T, Y60I, R61G
VL: B1 VL
notes: also called h1A11.A8 VH / h1A11VL.1
B10: h1A11.A11 (antibody, V domains shown)
VH: B1 VH with A56D, S59N, N77S
VL: B1 VL
notes: also called h1A11.A11 VH / h1A11VL.1
B11: h1A11.E12 (antibody, V domains shown)
VH: B1 VH with H31Y, S53G, A56E, S59N, S97A, Y107F
VL: B1 VL with E27Q, D28E, S31R, A43S, Y49F, N52S, N53V, F71S, N92T, N93Y
notes: also called h1A11.E12 VH / h1A11.E12 VL

Columns and labels:
[1] = molecular target: T1, human DLL4 extracellular domain (human, UniProt Q9NR61 27-529); assay: SPR (Biacore)
T1 construct: purified recombinant ECD; biotin-labelled or 6xHis-tagged depending on the assay; also called huDLL4 ECD; hu DLL4 ECD
Procedure: (§1) The BIACORE® surface plasmon resonance assay (Biacore, Inc., Piscataway, N.J., US) determines the affinity of antibodies with kinetic measurements of on-rate and off-rate constants. Binding of DLL4 antibodies to a purified recombinant DLL4 extracellular domain (ECD) was determined by surface plasmon resonance-based measurements with a Biacore® instrument (either a Biacore 2000, Biacore 3000, or Biacore T100; GE Healthcare, Piscataway, N.J., US) using running buffer HBS-EPB (10 mM HEPES [pH 7.4], 150 mM NaCl, 3 mM EDTA, 0.1 mg/ml BSA and 0.005% surfactant P20) at 25° C. For example, approximately 9000 RU of goat anti-human Fc specific polyclonal antibody (Thermo Fisher Scientific Inc., Rockford, Ill., US) diluted in 10 mM sodium acetate (pH 4.5) is directly immobilized across a CMS research grade biosensor chip using a standard amine coupling kit according to manufacturer's instructions and procedures at 25 μg/ml. Unreacted moieties on the biosensor surface were blocked with ethanolamine. For kinetic analysis, rate equations derived from the 1:1 Langmuir binding model were fitted simultaneously to multiple antigen injections (using global fit analysis) with the use of Scrubber 2 (BioLogic Software), Biacore Biaevaluation 4.0.1 software or Biacore T100 Evaluation software. Purified antibodies were diluted in running buffer for capture across goat anti-human Fc reaction surfaces. Antibodies to be captured as a ligand (1 μg/ml) were injected over reaction matrices at a flow rate of 10 μl/min. During the assay, all measurements were referenced against the capture surface alone (i.e., with no captured anti-DLL4 antibody). […] The equilibrium dissociation constant KD (M) of the reaction between antibodies and the target antigen was then calculated from the kinetic rate constants by the following formula: KD=Koff/Kₒₙ. Binding was recorded as a function of time and kinetic rate constants were calculated.

[2] = molecular target: T2, cynomolgus monkey DLL4 extracellular domain (cynomolgus monkey); assay: SPR (Biacore)
T2 construct: extracellular domain; also called cynoDLL4 ECD; Cyno DLL4
Procedure: as §1

[3] = molecular target: T3, mouse DLL4 extracellular domain (mouse, UniProt Q9JI71 27-532); assay: SPR (Biacore)
T3 construct: extracellular domain; also called muDLL4 ECD; murine DLL4
Procedure: as §1

[4] = molecular target: T4, rat DLL4 extracellular domain (rat, UniProt D3ZHH1 28-530); assay: SPR (Biacore)
T4 construct: extracellular domain; also called ratDLL4 ECD
Procedure: as §1

[5] = molecular target: T5, human DLL4, full length, on cells (human, UniProt Q9NR61 27-685); assay: cell-based or functional assay
[6] = molecular target: T6, mouse DLL4 on cells (mouse, UniProt Q9JI71 27-686); assay: cell-based or functional assay
[7] = molecular target: T5, human DLL4, full length, on cells; assay: FACS, direct binding to DLL4 cells
Procedure: (§2) Stable cell lines overexpressing cell-surface DLL4 were harvested from tissue culture flasks, washed four times and resuspended in phosphate buffered saline (PBS) containing 1% bovine serum albumin and 1 mM CaCl₂ (FACS buffer). 1.5×10⁵ cells were incubated with antibodies at various concentrations in FACS buffer for 60 minutes on ice. […] Following an incubation on ice (4° C., 60 minutes), cells were washed three times and resuspended in FACS buffer. Fluorescence was measured using a Becton Dickinson FACSCalibur-HTS (Becton Dickinson, San Jose, Calif., US). Data were analyzed using Graphpad Prism software and EC₅₀ values were reported as the concentration of antibody to achieve 50% of maximal DLL4 antibodies binding to DLL4 expressing cells.
(§3) The hu1A11.1 affinity matured clones (Table 22) were expressed, purified, and further characterized in vitro. Their activities of binding to cell-bound DLL4 and inhibiting cell-bound DLL4-induced Notch activation were further examined using methods described in Examples 1.3 and 1.6, and are summarized in Table 26 (below).

[8] = molecular target: T6, mouse DLL4 on cells; assay: FACS, direct binding to DLL4 cells
Procedure: as §2, §3

T6 sequence (Q9JI71 27-686): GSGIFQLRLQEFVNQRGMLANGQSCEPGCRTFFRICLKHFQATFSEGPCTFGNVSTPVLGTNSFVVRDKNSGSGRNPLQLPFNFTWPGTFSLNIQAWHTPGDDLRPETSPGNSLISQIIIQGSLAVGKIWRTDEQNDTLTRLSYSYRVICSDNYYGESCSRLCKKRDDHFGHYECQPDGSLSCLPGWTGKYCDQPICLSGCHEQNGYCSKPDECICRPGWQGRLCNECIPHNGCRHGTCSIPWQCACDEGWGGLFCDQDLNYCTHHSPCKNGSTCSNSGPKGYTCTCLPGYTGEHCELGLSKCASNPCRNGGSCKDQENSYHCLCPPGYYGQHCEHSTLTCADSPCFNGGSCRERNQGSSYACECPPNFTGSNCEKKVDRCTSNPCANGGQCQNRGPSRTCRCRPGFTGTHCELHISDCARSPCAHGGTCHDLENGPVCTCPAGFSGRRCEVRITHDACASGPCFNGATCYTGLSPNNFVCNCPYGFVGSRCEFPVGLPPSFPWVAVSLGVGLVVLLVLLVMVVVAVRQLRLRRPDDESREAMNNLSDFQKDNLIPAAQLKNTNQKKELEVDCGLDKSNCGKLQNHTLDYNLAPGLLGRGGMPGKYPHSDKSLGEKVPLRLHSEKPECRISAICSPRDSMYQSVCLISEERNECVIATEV
T3 sequence (Q9JI71 27-532): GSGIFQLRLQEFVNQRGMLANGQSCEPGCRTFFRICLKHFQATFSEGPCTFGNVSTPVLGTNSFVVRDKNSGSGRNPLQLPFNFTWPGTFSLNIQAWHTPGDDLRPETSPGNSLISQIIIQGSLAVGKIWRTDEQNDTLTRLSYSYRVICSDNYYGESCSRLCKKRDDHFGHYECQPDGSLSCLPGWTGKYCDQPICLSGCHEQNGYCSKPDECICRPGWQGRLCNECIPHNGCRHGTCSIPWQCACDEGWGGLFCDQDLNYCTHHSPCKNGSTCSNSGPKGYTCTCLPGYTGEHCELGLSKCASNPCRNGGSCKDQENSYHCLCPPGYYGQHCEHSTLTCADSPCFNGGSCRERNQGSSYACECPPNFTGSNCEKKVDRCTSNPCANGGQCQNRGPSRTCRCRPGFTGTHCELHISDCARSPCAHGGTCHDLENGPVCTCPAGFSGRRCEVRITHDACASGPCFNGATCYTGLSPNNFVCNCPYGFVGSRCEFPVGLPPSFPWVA
T5 sequence (Q9NR61 27-685 limits assumed): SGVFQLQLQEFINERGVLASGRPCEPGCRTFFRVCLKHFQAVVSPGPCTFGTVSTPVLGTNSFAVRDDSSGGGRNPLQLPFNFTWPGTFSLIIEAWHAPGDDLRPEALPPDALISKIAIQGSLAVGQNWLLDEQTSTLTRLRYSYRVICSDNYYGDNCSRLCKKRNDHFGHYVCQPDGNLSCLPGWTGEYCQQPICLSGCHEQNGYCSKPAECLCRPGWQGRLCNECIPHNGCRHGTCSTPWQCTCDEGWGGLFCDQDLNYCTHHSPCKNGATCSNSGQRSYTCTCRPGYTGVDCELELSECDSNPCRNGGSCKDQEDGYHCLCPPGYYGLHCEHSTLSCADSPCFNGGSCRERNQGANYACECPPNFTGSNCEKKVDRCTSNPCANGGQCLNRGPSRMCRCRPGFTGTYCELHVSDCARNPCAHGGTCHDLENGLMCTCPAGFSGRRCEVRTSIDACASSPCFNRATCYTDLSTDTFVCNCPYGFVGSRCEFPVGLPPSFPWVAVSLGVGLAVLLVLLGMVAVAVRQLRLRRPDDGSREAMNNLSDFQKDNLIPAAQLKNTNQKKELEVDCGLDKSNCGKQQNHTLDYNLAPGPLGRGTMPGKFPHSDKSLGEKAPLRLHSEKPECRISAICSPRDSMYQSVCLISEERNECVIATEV
T1 sequence (Q9NR61 27-529 limits assumed): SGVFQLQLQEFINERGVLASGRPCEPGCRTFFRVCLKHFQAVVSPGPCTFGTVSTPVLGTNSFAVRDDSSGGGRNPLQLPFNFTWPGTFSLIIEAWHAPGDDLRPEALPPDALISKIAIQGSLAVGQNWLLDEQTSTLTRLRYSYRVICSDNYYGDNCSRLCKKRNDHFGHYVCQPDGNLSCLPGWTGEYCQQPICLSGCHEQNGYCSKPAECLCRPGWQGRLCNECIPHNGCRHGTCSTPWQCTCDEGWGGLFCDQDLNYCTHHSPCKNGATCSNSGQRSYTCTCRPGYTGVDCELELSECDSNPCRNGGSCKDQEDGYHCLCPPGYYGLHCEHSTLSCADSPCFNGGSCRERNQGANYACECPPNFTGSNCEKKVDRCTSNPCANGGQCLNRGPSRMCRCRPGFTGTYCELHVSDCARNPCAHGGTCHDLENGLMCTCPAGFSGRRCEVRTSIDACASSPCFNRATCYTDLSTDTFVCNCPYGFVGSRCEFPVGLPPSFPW
T4 sequence (D3ZHH1 28-530): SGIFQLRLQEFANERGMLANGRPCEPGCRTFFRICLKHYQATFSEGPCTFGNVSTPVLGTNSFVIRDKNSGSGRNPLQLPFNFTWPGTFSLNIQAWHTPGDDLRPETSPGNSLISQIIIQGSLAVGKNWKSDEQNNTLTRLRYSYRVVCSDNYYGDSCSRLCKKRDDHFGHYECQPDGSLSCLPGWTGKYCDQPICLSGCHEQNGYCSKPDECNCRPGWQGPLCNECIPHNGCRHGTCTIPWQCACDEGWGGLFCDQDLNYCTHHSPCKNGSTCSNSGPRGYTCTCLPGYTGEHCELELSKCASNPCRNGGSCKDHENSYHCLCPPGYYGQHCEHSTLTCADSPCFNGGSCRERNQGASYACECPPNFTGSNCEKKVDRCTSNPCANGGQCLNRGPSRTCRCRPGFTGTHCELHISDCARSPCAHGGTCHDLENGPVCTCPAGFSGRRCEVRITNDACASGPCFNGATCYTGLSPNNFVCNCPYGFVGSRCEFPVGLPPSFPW

| Binder | Kd [1] [pM] | koff [1] [s⁻¹] | kon [1] [M⁻¹ s⁻¹] | Kd [2] [pM] | koff [2] [s⁻¹] | kon [2] [M⁻¹ s⁻¹] | Kd [3] [pM] | koff [3] [s⁻¹] | kon [3] [M⁻¹ s⁻¹] | Kd [4] [pM] | koff [4] [s⁻¹] | kon [4] [M⁻¹ s⁻¹] | Inhibition of Notch Activation via DLL4 cells, Notch reporter assay [5] [nM] | Inhibition of Notch Activation via DLL4 cells, Notch reporter assay [6] [nM] | EC50 [7] [pM] | EC50 [8] [pM] | binding result [4] |
| --- | --- | --- | --- | --- | --- | --- | --- | --- | --- | --- | --- | --- | --- | --- | --- | --- | --- |
| B1 | 36 | 6.62e-06 | 182000 | 120 | 2.1e-05 | 171000 | 160 | 3.12e-05 | 198000 | 6000 | 0.000772 | 129000 | 0.746 | 1.17 | 2230 | 636 |  |
| B2 | 40 | 7.18e-06 | 178000 | 180 | 3.12e-05 | 171000 | 120 | 2.34e-05 | 203000 | 18000 | 0.00305 | 169000 | 0.894 | 1.19 | 2450 | 517 |  |
| B3 | 87 | 9.39e-06 | 109000 | 170 | 1.73e-05 | 99000 | 350 | 4.04e-05 | 117000 | 8600 | 0.00101 | 118000 | 1.84 | 2.35 | 3590 | 1400 |  |
| B4 | 5700 | 0.000973 | 170000 | 7800 | 0.00124 | 158000 |  |  |  |  |  |  | 2.92 | 1.79 | 2170 | 625 | no binding |
| B5 | 3000 | 0.000421 | 142000 | 3900 | 0.000527 | 134000 | 5000 | 0.000904 | 181000 |  |  |  | 3.68 | 0.854 | 2380 | 634 | no binding |
| B6 | 7600 | 0.00132 | 173000 | 10000 | 0.00162 | 158000 |  |  |  |  |  |  | 1.66 | 0.832 | 1770 | 568 | no binding |
| B7 | 5200 | 0.000823 | 157000 | 6900 | 0.00099 | 143000 | 5200 | 0.0025 | 479000 |  |  |  | 3.28 | 1.08 | 2140 | 665 | no binding |
| B8 | 75 | 9.82e-06 | 131000 | 170 | 2e-05 | 118000 | 280 | 3.97e-05 | 143000 | 5800 | 0.000679 | 116000 | 0.484 | 0.649 | 1170 | 460 |  |
| B9 | 62 | 1.08e-05 | 174000 | 150 | 2.4e-05 | 160000 | 180 | 3.27e-05 | 187000 | 47000 | 0.0065 | 139000 | 1.33 | 1.25 | 3160 | 744 |  |
| B10 | 150 | 2.66e-05 | 183000 | 200 | 3.35e-05 | 170000 | 180 | 3.54e-05 | 198000 | 8800 | 0.00102 | 116000 | 0.904 | 1.18 | 2480 | 500 |  |
| B11 | 220 | 3.26e-05 | 149000 | 280 | 3.84e-05 | 137000 | 350 | 5.44e-05 | 156000 | 1600 | 0.000175 | 108000 | 0.208 | 0.266 | 996 | 1620 |  |
